Where two headings read alike, the source gives them in different places.
B1: H1H6765P-mc-VC-PAB-MMAE (conjugate)
VH: EVQLVESGGGVVRPGGSLRLSCVGSGFSFDDHGMNWVRQGPGKGLEWVSGFNWNGGSTNYAESVKGRFTISRDNARNSLFLQMNSLRAEDTALYYCVRGRSGWFNDAFDVWGPGTMVTVSS
VL: EIVLTQSPGTLSLSPGERATLSCRASQTINSNYLAWYRQKPGQTPRLLIYGTSSRATGIPDRFSGSGSGTDFSLTISRLEPEDFAVFYCQQYAGLPTFGPGTKVDIK
B2: H1H6800P-DM1 (conjugate)
VH: EVQLVESGGGLVQPGRSLRLSCAASGFTFDGYAMHWVRQGPGKGLEWVSGISWYSDTLGYADSVKGRFTISRDNAKNSLYLQMNSLRTEDTAFYYCAKISSSGWAFDYWGQGTLVTVSS
VL: EIVLTQSPGTLSLSPGERATLSCRASHSVSSAYLAWYQQKPGQTPRLLIYGTSSRATGIPDRFSGSGSGTDFTLTISRLEPEDFAVYYCQQYGSSPLFTFGPGTKVDIK
B3: H1H6953N-SMCC-DM1 (conjugate)
VH: EVQLLESGGGLVQPGGTLRLSCAASGFTFSAYAMSWVRQAPGKGLEWVSSINVRAGDTYYADSVKGRFTISRDNSKNTLFLLMNSLRAEDTAAYYCAKARYSSNWGFDFWGQGTLVTVSS
VL: DIVMTQSPDSLTVSLGARTTINCQSSQTILHSSNNHNYLAWYQQKPGLPPKLLIYWSSTRESGVPDRFSGSGSGTDFTLTISSLQAEDVAIYYCQQYSNTPYTFGQGTKLEIN
B4: H1H6803P-DM1 (conjugate)
VH: EVQLVESGGGVVRPGGSLRLSCAASGFKFDDYGMTWVRHVPGKGLEWVSGINWNGGRTGYTDSVKGRFTISRDNAKNSLYLQMNSLRAEDTALYHCAGARRDAFDIWGQGTMVTVSS
VL: DIQMTQSPSSLSASIGDRVTITCRASQNIIKYLNWYQQNAGKAPKLLIYTASSLQSGVPSRFSGSGSGTDFTLTISSLQPEDFATYYCQQSSSSPYTFGQGTKLEIK
B5: H1H6793P-DM1 (conjugate)
VH: EVQLVESGGGLVQPGGSLRLSCAASGFSFSIYAMSWFRQAPGKGLEWVSAINGRGDGTHYADSVKGRFTISRDNSKTTLYLQMSSLRAEDTAVYYCAKPVMSTNGFDIWGQGTMVTVSS
VL: DIQMTQSPSTLSASVGDRVTITCRASQSISSWLAWYQLKPGKAPKLLIYKASNLESGVPSRFSGSGSGTEFTLTISSLQPDDFATYYCQQYNIYWTFGQGTKVEIK
B6: H1H6958N2-mc-VC-PAB-MMAE (conjugate)
VH: QVQLVESGGGVVQPGRSLRLSCGASGFTFRNYGMQWVRQGPGKGLEWVTLISFDGNDKYYADSVKGRFTISRDNSKNTLFLQMNSLRTEDTAVYYCARGGDFDYWGQGTLVTVSS
VL: DIQMTQSPSSLSASVGDRVTITCRASQDIRKDLGWYQQKPGKAPKRLIYAASSLHSGVPSRFSGSGSGTEFTLTISSLQPEDFATYYCLQHNSYPMYTFGQGTKLEIK
B7: H1H6762P-DM1 (conjugate)
VH: QVQLVESGGGVVQPGRSLRLSCAASGFTFSHYGMVWVRQPPGKGLEWVALISFDGTTKYYADSVKGRFTISRDNSKNTLYLQMNSLRAEDTAVYFCVGAIAAAAFDLWGRGTLVTVSS
VL: EIVMTQSPATLSVSPGERATLSCRASQSVSSDLAWYQQKPGQAPRLLIYSASARATGIPARFTGSGSGTDFTLTISSLQSEDFAVYYCQQYNNWPMYTFGQGTKLEIK
B8: H1H6975P-DM1 (conjugate)
VH: EVHLVESGGGLVQPGGSLRLSCAASGFTFSSYEMNWVRQTPGKGLEWISHISSRSVIIYYADSVKGRFTISRDNAKNSLFLQMNSLRAEDTAVYFCAGITIFGIPEYWGQGTLVTVSS
VL: EIVLTQSPATLSLSPGERATLSCRASQSVSSYFAWYQQKPGQAPRLLIYDASSRATGIPTRFSGSGSGTDFTLTISSLEPEDFAVYYCQQRSSWPITFGQGTRLEIK

Tests used:
T47D cells = assay: Cell viability (cell kill) assay; type: cell-based; settings: T47D; for IC50: read-out: IC50
Procedure: (§1) Next, the ability of anti-PRLR-DM1 antibody-drug conjugates (i.e., anti-PRLR antibodies conjugated to DM1 via a non-cleavable linker [SMCC]) to reduce cell viability was determined using in vitro cell based assays. Cells were seeded in PDL-coated 96 well plates at 1500 to 10000 cells per well in complete growth media and allowed to grow overnight. For cell viability curves, ADCs or free DM1 (as the methyl disulfide derivative DM1-SMe) were added to the cells at final concentrations ranging from 500 nM to 5 pM and incubated for 3 days. The 293, PC3 and T47D cells were incubated with CCK8 (Dojindo, Rockville, Md.) for the final 1-3 hours and the absorbance at 450 nm (OD450) was determined on a Flexstation3 (Molecular Devices, Sunnyvale, Calif.). MCF7 cells were treated with Hoechst 33342 nuclear stain while being fixed with 4% formaldehyde. Images were acquired on the ImageXpress micro XL (Molecular Devices, Sunnyvale, Calif.) and nuclear counts were determined via Columbus image analysis software (Perkin Elmer, Shelton, Conn.). Background OD450 values (PC3, 293, and T47D) or nuclear counts (MCF7) from digitonin (40 nM) treated cells was subtracted from all wells and viability was expressed as a percentage of the untreated controls. IC50 values were determined from a four-parameter logistic equation over a 10-point response curve (GraphPad Prism).
Additionally, the impact of the PRLR ligand, PRL, on PRLR-SMCC-DM1 cell kill in T47D cells was assessed. T47D cells were incubated simultaneously with PRL (15 nM) and either a non-blocking anti PRLR antibody (H1H6782P) or a receptor blocking antibody (H1H6958N2).
(§2) Additional toxins (DM4, MeNHC3-May, and MMD) conjugated to anti-PRLR antibodies were also tested in T47D and MCF7/hPRLR cell lines, and results are summarized in Tables 19 (293 and T47D cell killing) and 20 (MCF7/ATCC and MCF7/PRLR cell killing). (ND=not detected).

MCF7 (MCF7/ATCC) cells = assay: Cell viability (cell kill) assay, nuclear counts; type: cell-based
Text: (§3) PRLR-overexpressing cells, including HEK293, PC3, MCF7 and NCI-N87, were generated to assess the ability of anti-PRLR conjugated antibodies to reduce cell viability. For comparative purposes, PC3 and T47D cells with overexpressed ErbB2 were also generated, as well as an MCF7 cell line over-expressing both hPRLR and hErbB2. Briefly, Lipofectamine® 2000-mediated transfection methodology was utilized to generate HEK293 cells expressing human PRLR (HEK293/hPRLR) or human ErbB2 (HEK293/hErbB2). Lipofectamine LTX with Plus Reagent was used to generate PC3 cells expressing human PRLR (PC3/hPRLR) or human ErbB2 (PC3/hErbB2). Lentiviral-mediated transduction was utilized to generate MCF7 cells expressing human PRLR (MCF7/hPRLR), NCI-N87 cells expressing human PRLR (NCI-N87/hPRLR), T47D cells over-expressing human ErbB2 (T47D/hErbB2), and MCF7 cells expressing both human PRLR and human ErbB2 (MCF7/hPRLR/hErbB2). All lines were selected for at least two weeks in complete growth media plus appropriate selection reagents. Stably expressing populations were enriched for PRLR expression via FACS using the anti PRLR antibody Control I.
as §1
(§4) Finally, the potency of anti-PRLR antibodies conjugated to DM1 via the non-cleavable linker SMCC was compared to the cell killing potency of anti-PRLR antibodies conjugated to MMAE via the cleavable linker: mc-vc-PAB (available from Concortis, San Diego, Calif.). Cells used in this experiment were PC3, PC3/hPRLR, MCF7/ATCC and MCF7/PRLR.
as §2

PC3/hPRLR cells = assay: Cell viability (cell kill) assay; type: cell-based, human
Text: as §3, §1, §4

[1] = tested on: MCF7/hPRLR (MCF7/PRLR) cells; assay: Cell viability (cell kill) assay, nuclear counts; type: cell-based, human
Text: as §3, §1, §4, §2

PC3 cells = assay: Cell viability (cell kill) assay; type: cell-based
Text: as §3, §1, §4

[2] = Conjugate characterization: protein and linker/payload concentrations, payload loading (UV, MALDI-TOF, SEC-HPLC, RP-HPLC); type: physicochemical; settings: Anti-PRLR-SMCC-DM1 conjugates; Table 9
Text: Selected anti-PRLR antibodies were conjugated to the maytansinoid DM1 through an SMCC linker using methods similar to those set forth in U.S. Pat. No. 5,208,020 and US Patent Application Publication No. 2010/0129314, the disclosures of which are incorporated by reference herein in their entireties. The conjugates were purified by size exclusion chromatography and sterile filtered. All starting materials and solvents were purchased commercially and used without purification, unless otherwise noted.
Protein and linker/payload concentrations were determined by UV spectral analysis and MALDI-TOF mass spectrometry. Size-exclusion HPLC established that all conjugates used were >95% monomeric, and RP-HPLC established that there was <0.5% unconjugated linker payload. Yields are reported in Table 8 and 9 based on protein. All conjugated antibodies were analyzed by UV for linker payload loading values according to Hamblett et al, 2004, Clinical Cancer Research 10(20):7063-7070, and by mass difference, native versus conjugated.

HEK293 (293) cells = assay: Cell viability (cell kill) assay; type: cell-based; settings: 293
Text: as §3, §1

Molecule | % Kill (T47D cells; Table 19) [%] | IC50 (T47D cells; Table 19) [nM] | % Kill (MCF7 (MCF7/ATCC) cells; MCF7/ATCC, Table 18) [%] | IC50 (MCF7 (MCF7/ATCC) cells; MCF7/ATCC, Table 18) [nM] | % Kill (MCF7 (MCF7/ATCC) cells; MCF7/ATCC, Table 20) [%] | IC50 (MCF7 (MCF7/ATCC) cells; MCF7/ATCC, Table 20) [nM] | % Kill (PC3/hPRLR cells; PC3/hPRLR, Table 18) [%] | IC50 (PC3/hPRLR cells; PC3/hPRLR, Table 18) [nM] | % Kill ([1]; Table 18) [%] | IC50 ([1]; Table 18) [nM] | % Kill ([1]; Table 20) [%] | Payload:Antibody Molar Ratio (MS) [2] | % Kill (T47D cells; Table 12, 3 days) [%] | IC50 (T47D cells; Table 12, 3 days) [nM] | % Kill (MCF7 (MCF7/ATCC) cells; MCF7, Table 12, 3 days) [%] | IC50 (MCF7 (MCF7/ATCC) cells; MCF7, Table 12, 3 days) [nM] | % Kill (PC3/hPRLR cells; PC3/PRLR, Table 11, 3 days) [%] | IC50 (PC3/hPRLR cells; PC3/PRLR, Table 11, 3 days) [nM] | % Kill ([1]; Table 12, 3 days) [%] | IC50 ([1]; Table 12, 3 days) [nM] | also measured
B1 | 90 | 1 | 38 | 150 | 40 | 150 | 85 | 0.4 | 86 | 0.2 | 90 | – | – | – | – | – | – | – | – | – | IC50 ([1]; Table 20): 0.2 nM; IC50 (PC3 cells; Table 18): 150 nM
B2 | – | – | – | – | – | – | – | – | – | – | – | 3.2 | 79 | 3.2 | 65 | 150 | 68 | 1.37 | 85 | 0.4 | Payload:Antibody Molar Ratio (UV) [2]: 3.0; % Kill (HEK293 (293) cells; Table 11, 3 days): 85%; IC50 (HEK293 (293) cells; Table 11, 3 days): 150 nM; IC50 (PC3 cells; Table 11, 3 days): 150 nM
B3 | 100 | 1.5 | 70 | 80 | 70 | 90 | 83 | 0.4 | 80 | 0.1 | 80 | – | – | – | – | – | – | – | – | – | % Kill (HEK293 (293) cells; Table 19): 90%; IC50 (HEK293 (293) cells; Table 19): 100 nM; IC50 ([1]; Table 20): 0.3 nM; IC50 (PC3 cells; Table 18): 90 nM
B4 | – | – | – | – | – | – | – | – | – | – | – | 3.1 | 77 | 8.61 | 60 | 150 | 70 | 2.32 | 84 | 0.44 | IC50 (PC3 cells; Table 11, 3 days): 150 nM
B5 | – | – | – | – | – | – | – | – | – | – | – | 3.8 | 53 | 11.1 | 67 | 125 | 65 | 3.65 | 87 | 0.54 | –
B6 | 90 | 1 | 53 | 150 | 50 | 150 | 82 | 0.5 | 88 | 0.2 | 90 | – | – | – | – | – | – | – | – | – | IC50 ([1]; Table 20): 0.2 nM; IC50 (PC3 cells; Table 18): 100 nM
B7 | – | – | – | – | – | – | – | – | – | – | – | 2.9 | 80 | 12.6 | 64 | 110 | 66 | 0.98 | 83 | 0.46 | IC50 (HEK293 (293) cells; Table 11, 3 days): 100 nM
B8 | – | – | – | – | – | – | – | – | – | – | – | 3.4 | – | – | – | – | – | – | – | – | Payload:Antibody Molar Ratio (UV) [2]: 3.0
